Test results as given in article PMC4591219 (Cell reports, 2015).
Values belong to the binder of their own block, whether it stands above or below them.

Experiments:
[1] = target: T1, Ccq1 (130–439) (S. pombe, UniProt Q10432 130-439); assay: cross-linking
T1 sequence: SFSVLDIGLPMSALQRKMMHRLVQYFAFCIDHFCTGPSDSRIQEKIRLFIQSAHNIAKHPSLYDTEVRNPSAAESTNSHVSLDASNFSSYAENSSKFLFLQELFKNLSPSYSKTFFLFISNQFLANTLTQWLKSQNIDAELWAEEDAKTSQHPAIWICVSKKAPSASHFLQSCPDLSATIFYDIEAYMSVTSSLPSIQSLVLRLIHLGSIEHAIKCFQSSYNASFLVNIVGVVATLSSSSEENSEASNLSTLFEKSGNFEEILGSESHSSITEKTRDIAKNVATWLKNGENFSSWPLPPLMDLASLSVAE

[2] = target: T2, full-length Pot1 (in the purified Pot1–Tpz1-NTD complex) (S. pombe, UniProt O13988 1-555); assay: cross-linking
T2 sequence: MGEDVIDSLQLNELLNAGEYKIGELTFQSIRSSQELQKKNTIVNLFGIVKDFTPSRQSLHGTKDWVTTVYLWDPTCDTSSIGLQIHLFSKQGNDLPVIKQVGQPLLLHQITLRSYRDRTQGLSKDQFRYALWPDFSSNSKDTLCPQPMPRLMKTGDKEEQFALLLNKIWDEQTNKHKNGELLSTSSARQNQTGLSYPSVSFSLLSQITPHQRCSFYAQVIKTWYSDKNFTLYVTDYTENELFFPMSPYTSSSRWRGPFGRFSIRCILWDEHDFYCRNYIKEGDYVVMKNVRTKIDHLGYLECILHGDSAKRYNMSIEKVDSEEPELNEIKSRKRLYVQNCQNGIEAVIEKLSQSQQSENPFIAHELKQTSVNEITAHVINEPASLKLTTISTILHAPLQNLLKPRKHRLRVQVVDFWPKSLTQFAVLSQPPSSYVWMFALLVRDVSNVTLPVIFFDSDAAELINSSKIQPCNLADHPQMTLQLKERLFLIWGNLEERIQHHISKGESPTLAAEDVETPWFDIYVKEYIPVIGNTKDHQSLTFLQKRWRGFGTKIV

[3] = target: T3, Pot1-I453R (Schizosaccharomyces pombe, UniProt O13988 1-555, I453R); assay: EMSA
T3 sequence: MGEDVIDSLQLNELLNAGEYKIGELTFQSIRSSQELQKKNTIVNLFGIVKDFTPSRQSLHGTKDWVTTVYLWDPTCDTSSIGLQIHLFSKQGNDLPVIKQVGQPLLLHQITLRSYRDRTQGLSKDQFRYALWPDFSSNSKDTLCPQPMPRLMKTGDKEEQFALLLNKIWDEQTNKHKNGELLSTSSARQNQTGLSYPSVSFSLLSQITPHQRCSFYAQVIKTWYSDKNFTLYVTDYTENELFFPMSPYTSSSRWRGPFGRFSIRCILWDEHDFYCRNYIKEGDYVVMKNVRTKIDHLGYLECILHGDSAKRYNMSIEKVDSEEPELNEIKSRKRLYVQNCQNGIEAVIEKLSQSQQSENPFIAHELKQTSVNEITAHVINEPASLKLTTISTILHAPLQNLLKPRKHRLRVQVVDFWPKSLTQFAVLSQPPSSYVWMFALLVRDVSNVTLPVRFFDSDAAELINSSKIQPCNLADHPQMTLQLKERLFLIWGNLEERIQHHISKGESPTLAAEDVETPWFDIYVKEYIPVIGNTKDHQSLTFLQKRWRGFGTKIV

[4] = target: T4, Pot1-F520A (Schizosaccharomyces pombe, UniProt O13988 1-555, F520A); assay: EMSA
T4 sequence: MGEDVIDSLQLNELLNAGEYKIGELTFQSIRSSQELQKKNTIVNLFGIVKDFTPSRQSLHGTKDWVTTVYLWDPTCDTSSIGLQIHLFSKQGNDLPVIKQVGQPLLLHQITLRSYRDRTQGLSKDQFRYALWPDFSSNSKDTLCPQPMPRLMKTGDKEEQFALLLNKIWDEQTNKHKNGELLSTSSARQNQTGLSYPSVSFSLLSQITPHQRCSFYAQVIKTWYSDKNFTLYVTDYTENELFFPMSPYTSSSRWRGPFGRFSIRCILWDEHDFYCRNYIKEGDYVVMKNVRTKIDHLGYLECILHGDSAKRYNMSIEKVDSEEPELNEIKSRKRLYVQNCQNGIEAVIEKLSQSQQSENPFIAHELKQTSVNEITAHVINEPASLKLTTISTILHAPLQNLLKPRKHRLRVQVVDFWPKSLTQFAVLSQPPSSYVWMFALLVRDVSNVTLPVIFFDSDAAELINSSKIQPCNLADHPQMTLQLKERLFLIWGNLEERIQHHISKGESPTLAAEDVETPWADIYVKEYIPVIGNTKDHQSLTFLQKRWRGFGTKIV

[5] = target: T5, Pot1 (wild type, recombinant, GST pull-down) (S. pombe, UniProt O13988 1-555); assay: pull-down
T5 sequence: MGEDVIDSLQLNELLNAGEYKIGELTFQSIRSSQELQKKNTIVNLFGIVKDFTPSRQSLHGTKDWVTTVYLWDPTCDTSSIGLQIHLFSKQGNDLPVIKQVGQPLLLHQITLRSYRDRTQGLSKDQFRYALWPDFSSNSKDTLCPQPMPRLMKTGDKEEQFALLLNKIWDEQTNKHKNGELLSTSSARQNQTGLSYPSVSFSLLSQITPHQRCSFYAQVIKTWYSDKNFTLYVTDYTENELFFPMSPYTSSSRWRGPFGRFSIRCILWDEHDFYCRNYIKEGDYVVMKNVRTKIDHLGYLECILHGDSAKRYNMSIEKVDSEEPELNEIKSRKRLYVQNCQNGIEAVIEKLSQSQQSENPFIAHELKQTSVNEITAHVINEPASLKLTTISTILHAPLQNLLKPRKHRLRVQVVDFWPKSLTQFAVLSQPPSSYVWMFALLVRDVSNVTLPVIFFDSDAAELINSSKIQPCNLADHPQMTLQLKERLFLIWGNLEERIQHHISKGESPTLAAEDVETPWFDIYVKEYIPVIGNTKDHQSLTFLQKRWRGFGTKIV

[6] = target: T6, full-length Poz1 (in the purified Poz1-Tpz1 complex) (S. pombe, UniProt O13852 1-249); assay: cross-linking
T6 sequence: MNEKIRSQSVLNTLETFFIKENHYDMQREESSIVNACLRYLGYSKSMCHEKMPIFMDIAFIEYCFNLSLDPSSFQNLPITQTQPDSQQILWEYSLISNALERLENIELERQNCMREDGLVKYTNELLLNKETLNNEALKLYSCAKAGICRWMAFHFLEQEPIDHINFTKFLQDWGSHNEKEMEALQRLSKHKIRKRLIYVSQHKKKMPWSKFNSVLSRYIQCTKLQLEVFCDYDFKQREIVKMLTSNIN

[7] = target: T7, Poz1-W209A (recombinant) (S. pombe, UniProt O13852 1-249, W209A); assay: pull-down
T7 sequence: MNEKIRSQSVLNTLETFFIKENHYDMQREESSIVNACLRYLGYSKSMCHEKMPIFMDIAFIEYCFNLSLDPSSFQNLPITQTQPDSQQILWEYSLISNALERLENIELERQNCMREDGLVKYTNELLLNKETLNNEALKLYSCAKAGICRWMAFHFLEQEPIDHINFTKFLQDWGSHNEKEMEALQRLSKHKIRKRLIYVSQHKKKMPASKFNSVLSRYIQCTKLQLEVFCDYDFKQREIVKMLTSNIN

[8] = target: T8, Poz1 (wild type, recombinant, GST pull-down) (S. pombe, UniProt O13852 1-249); assay: pull-down
T8 sequence: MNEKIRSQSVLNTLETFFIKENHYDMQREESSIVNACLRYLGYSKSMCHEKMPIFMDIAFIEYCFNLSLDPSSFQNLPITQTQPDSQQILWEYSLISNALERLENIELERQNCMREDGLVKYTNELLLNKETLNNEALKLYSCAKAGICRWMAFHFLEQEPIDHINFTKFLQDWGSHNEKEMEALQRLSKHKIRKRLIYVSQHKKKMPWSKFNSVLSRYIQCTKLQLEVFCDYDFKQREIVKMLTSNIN

[9] = target: T9, Poz1-W174R (recombinant) (S. pombe, UniProt O13852 1-249, W174R); assay: pull-down
T9 sequence: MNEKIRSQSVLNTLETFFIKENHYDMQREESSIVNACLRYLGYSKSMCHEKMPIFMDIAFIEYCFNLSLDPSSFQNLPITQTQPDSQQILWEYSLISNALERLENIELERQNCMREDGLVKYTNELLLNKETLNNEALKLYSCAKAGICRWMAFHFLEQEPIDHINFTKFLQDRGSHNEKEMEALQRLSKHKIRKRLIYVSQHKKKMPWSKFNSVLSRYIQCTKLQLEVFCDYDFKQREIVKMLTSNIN

B1: Tpz1-NTD (1–234) (in the purified Pot1–Tpz1-NTD complex) (domain or fragment)
chain: MSNCLKHPWLENGLLNLIKNADVLPIRVFKCQPLQIFEYIRYEHPIRCKLSDTEFYIEAEFSSQSISDLNNFTEKRITSLRGGIVTLGNFLIHLIPSQSGIIPWIQVESFNFQGCEGAVFGNPKAITTSALFNALLQSPYLAALANEFNRSIKEGSSYQEASLSQQEKPNDNTSNSRDIKNNIQFHWKNMTSLSIEECIIPKGQQLILEKESEENTTHGIYLEERKMAQGLHNS
binding result [2]: binds

Binder: GTTACGGTTACAGGTTACG (ssDNA) [telomeric ssDNA 19-mer]
binding result [3]: binds
binding result [4]: binds

B3: Tpz1 (406–508) (in the purified Poz1-Tpz1 complex) (domain or fragment)
chain: SSVISCTPPAINFTSDICNEQIELEYKRKPIPDYDFMKGLETTLQELYVEHQSKKRRLELFQLTNNHQKNSEACEMCRLGLPHGSFFELLRDWKKIEEFRNKS
binding result [6]: binds

B4: GST-Tpz1-CTD (406–508) (domain or fragment)
chain: SSVISCTPPAINFTSDICNEQIELEYKRKPIPDYDFMKGLETTLQELYVEHQSKKRRLELFQLTNNHQKNSEACEMCRLGLPHGSFFELLRDWKKIEEFRNKS
binding result [7]: binds
binding result [8]: binds
binding result [9]: binds

The next lines start with the values.

binding result [1]: binds
Binder: AINFTSDICNEQIELEYKRKPIPDYDFMKGLETTLQELYVEHQS (domain or fragment) [Tpz1 (415–458)]

binding result [5]: binds
B2: GST-Tpz1-NTD (2–234) (domain or fragment)
chain: SNCLKHPWLENGLLNLIKNADVLPIRVFKCQPLQIFEYIRYEHPIRCKLSDTEFYIEAEFSSQSISDLNNFTEKRITSLRGGIVTLGNFLIHLIPSQSGIIPWIQVESFNFQGCEGAVFGNPKAITTSALFNALLQSPYLAALANEFNRSIKEGSSYQEASLSQQEKPNDNTSNSRDIKNNIQFHWKNMTSLSIEECIIPKGQQLILEKESEENTTHGIYLEERKMAQGLHNS
